Results taken from paper PMC10232555, “Molecular structure of soluble vimentin tetramers” (Scientific Reports, 2023).
Where “and” joins values, the source holds several entries; their conditions need not be identical. Equal entries are not always repeated.

B1: vimentin coil1B construct (residues 150-249) (domain or fragment)
chain: not shown
notes: vimentin, human, coil1B, residues 150-249; theoretical monomer mass printed as 12.1 kDa; also called coil1B fragment; source: denatured in 8 M urea and re-natured by step-wise dialysis before analysis
B2: vimentin ΔNrod (coil1B and coil2, residues 150-404) (domain or fragment)
chain: not shown
notes: vimentin, human, coil1B and coil2 domains, residues 150-404; theoretical monomer mass printed as 30.2 kDa; source: denatured in 8 M urea and re-natured by step-wise dialysis before analysis
B3: vimentin rod domain (residues 93-404) (domain or fragment)
chain: not shown
notes: vimentin, human, rod domain, residues 93-404; theoretical monomer mass printed as 36.9 kDa; also called rod fragment; rod construct; source: denatured in 8 M urea and re-natured by step-wise dialysis before analysis

Biological target: the molecule itself
Test: SEC-MALS; Superdex 200 Increase 10/300 GL, HS buffer (10 mM HEPES, 150 mM NaCl, pH 7.5) after salt jump and 1 h at 37 °C; injected 0.79 mg/mL rod, 0.55 mg/mL ΔNrod, 1.52 mg/mL coil1B

Protein	stoichiometry N
B1	2
B2	2 and 4
B3	4

Biological target: the molecule itself
Test: cross-linking; truncated fragments 0.4 mg/mL in HS conditions (10 mM HEPES, 150 mM NaCl, pH 7.5); DSG and DSBU; reducing SDS-PAGE

Protein	stoichiometry N
B1	2
B2	2
B3	4
